# ± gives the standard deviation of the averaged measurements.
# System: ATP
# Assay: switch fluorescence ratio, 500 uM ATP over buffer (Cy3 cluster intensity, sum of 5 cycles each) (fold (ratio)); higher = stronger signal-on switching upon ATP binding; sequences stand for … in TCGTCGGCAGCGTCAGATGTGTATAAGAGACAGTTTTTTTTTTTTTTTTTTTTTTTTT…TC
# Settings: aptamer strand: ATP DNA aptamer (quencher-CACCTGGGGGAGTATTGCGGAGGAAGG + anchor), 100 nM annealed; ATP concentration: 500 uM
# Summary of the method: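 Five buffer/ATP imaging cycles were run on Cy3-labelled switching-strand clusters on a modified Illumina MiSeq flow-cell, with NaOH stripping and re-annealing between cycles. In each cycle, clusters annealed to 100 nM quencher-labelled ATP aptamer were imaged in selection buffer, then after 15 min with 500 uM ATP at 22 °C. Per cluster, the fluorescence ratio is summed target-cycle over summed buffer-cycle Cy3 intensity, averaged per switch-domain sequence. Only clusters within 100-1000 RFU were kept.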
# 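Also: ATP exposure 15 min at 22 °C before imaging.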
row,Sequence,switch fluorescence ratio
1,ATAATTTGCC,1.01 ± 0.05
2,ATAATTTGGG,0.99 ± 0.017
3,ATACAACCTG,1.106 ± 0.0065
4,ATACAAGGCA,0.956 ± 0.053
5,ATACACGTTA,1.23 ± 0.013
6,ATACCAGGCG,1.24 ± 0.069
7,ATACCCTGGG,1.03 ± 0.035
8,ATACCGGTTG,1.02 ± 0.015
9,ATACCGTGAG,1.05 ± 0.011
10,ATACGAAGGC,0.985 ± 0.093
11,ATACGACGTG,1.004 ± 0.0083
12,ATACGAGCAG,1.067 ± 0.006
13,ATACGAGTTA,1.02 ± 0.021
14,ATACGATTTG,0.971 ± 0.038
15,ATACGGGAAT,1.05 ± 0.022
16,ATACGTTGAA,1 ± 0.045
17,ATACTGTCGC,1.0874 ± 0.0002
18,ATACTTAGTG,0.986 ± 0.019
19,ATACTTGATT,0.994 ± 0.025
20,ATACTTTGGT,0.9944 ± 0.0018
21,ATAGAAATTG,1.01 ± 0.035
22,ATAGAAGGGT,1.01 ± 0.026
23,ATAGAATCAA,1.02 ± 0.022
24,ATAGACACGC,1.034 ± 0.0078
25,ATAGACAGAC,1.136 ± 0.0095

row,Sequence,switch fluorescence ratio
1,ATAGACGAGG,0.9809 ± 0.0011
2,ATAGAGTTCT,0.997 ± 0.041
3,ATAGATCAGC,0.995 ± 0.025
4,ATAGATGGCC,0.95 ± 0.056
5,ATAGCCCGGG,0.986 ± 0.011
6,ATAGCCGTCG,1.07 ± 0.12
7,ATAGCTACGC,1.035 ± 0.003
8,ATAGCTCTCG,1.01 ± 0.037
9,ATAGGAAAAA,0.963 ± 0.059
10,ATAGGAGTTG,1.033 ± 0.0089
11,ATAGGCCAG,0.9898 ± 0.0067
12,ATAGGCGGAG,0.965 ± 0.02
13,ATAGGCGGGT,1.004 ± 0.005
14,ATAGGCTAAA,1.04 ± 0.044
15,ATAGGCTAGT,1.02 ± 0.025
16,ATAGGCTGTT,0.986 ± 0.038
17,ATAGGGACAC,1.07 ± 0.033
18,ATAGGGATAG,1.01 ± 0.047
19,ATAGGGGAGT,0.993 ± 0.03
20,ATAGGGGGGC,1.01 ± 0.074
21,ATAGGGGTCG,1.01 ± 0.076
22,ATAGGGGTGC,1.02 ± 0.042
23,ATAGGGTAAG,0.965 ± 0.018
24,ATAGGGTCCG,0.977 ± 0.024
25,ATAGGTATCT,0.988 ± 0.019

row,Sequence,switch fluorescence ratio
1,ATAGGTATGA,0.988 ± 0.01
2,ATAGGTCCGG,0.9957 ± 0.0041
3,ATAGGTCTCA,1 ± 0.013
4,ATAGGTCTTA,0.983 ± 0.04
5,ATAGGTGAGA,1.06 ± 0.02
6,ATAGGTTTTT,0.973 ± 0.024
7,ATAGTAAAGG,0.994 ± 0.031
8,ATAGTACTTT,1.05 ± 0.044
9,ATAGTAGCTA,0.9764 ± 0.0016
10,ATAGTATGTT,0.99 ± 0.051
11,ATAGTATTAT,0.968 ± 0.015
12,ATAGTCAAGG,0.982 ± 0.028
13,ATAGTCAGAT,0.969 ± 0.014
14,ATAGTCCCAC,0.9901 ± 0.009
15,ATAGTGACCG,1.01 ± 0.013
16,ATAGTGAGCG,1.01 ± 0.025
17,ATAGTGAGGT,0.986 ± 0.038
18,ATAGTGCTGT,0.97717 ± 0.00097
19,ATAGTGGGGA,1.04 ± 0.026
20,ATAGTTGGGA,1.018 ± 0.0011
21,ATAGTTGGTT,1.01 ± 0.03
22,ATAGTTTGAT,1.01 ± 0.022
23,ATAGTTTTTG,0.993 ± 0.012
24,ATAGTTTTTT,0.977 ± 0.017
25,ATATAAAGGG,0.996 ± 0.025

row,Sequence,switch fluorescence ratio
1,ATATACGGCA,1.19 ± 0.08
2,ATATAGGTA,1.036 ± 0.0097
3,ATATAGGTTT,1.01 ± 0.0081
4,ATATAGTTCG,0.967 ± 0.047
5,ATATAGTTTG,1.001 ± 0.0031
6,ATATATATCG,1.01 ± 0.0093
7,ATATATCGTG,0.995 ± 0.019
8,ATATATGGAG,1.011 ± 0.00029
9,ATATATGGTG,1.05 ± 0.02
10,ATATCAGGGG,1.13 ± 0.017
11,ATATCATGGG,0.982 ± 0.017
12,ATATCATGTC,0.9895 ± 0.0032
13,ATATCATTCA,1.01 ± 0.019
14,ATATCCAGGA,1.02 ± 0.018
15,ATATCCGCTG,1.52 ± 0.071
16,ATATCGGCAT,1.01 ± 0.035
17,ATATCGGTAG,0.999 ± 0.014
18,ATATCTATTT,0.997 ± 0.019
19,ATATCTTTTG,0.9904 ± 0.0088
20,ATATGAAGAG,0.99884 ± 9.2e-05
21,ATATGAAGGG,1 ± 0.032
22,ATATGAATA,0.9987 ± 0.0037
23,ATATGCAGGA,0.965 ± 0.03
24,ATATGCCGAT,0.996 ± 0.013
25,ATATGCGGCG,1.02 ± 0.073

# Source: the supplement of paper PMC10126150
